Results on two compounds are retold here after publication PMC4317691, “Stability of glucagon-like peptide 1 and glucagon in human plasma” (Endocrine Connections, 2015).

The conditions of series [1]: human plasma, no ice. Here is the method: GLP-1 and glucagon (0 and 40 pmol/l) were added to the portions, whereafter they were stored at either room temperature or on ice for 1 h and measured (as described below plasma samples after extraction and buffer samples directly).
Series [2] can be described thus: Stability of glucagon in frozen assay buffer with 6% HSA. It is filed as physicochemical. To be noted: 40 pmol/l, -20 °C for up to 72 h.
How the values of series [3] were obtained:
The aliquots (N=6–8) of spiked plasma were then: i) immediately extracted with ethanol (final concentration 70%, for this treatment we used N=21); ii) subjected to one freeze–thaw cycle (placed at −20 °C for ∼1 h followed by thawing in an ice bath) and extracted (using 70% ethanol, final concentration) immediately upon thawing; iii) subjected to two freeze–thaw cycles and extracted immediately upon second thawing; iv) subjected to three freeze–thaw cycles and extracted immediately upon third thawing; v) kept on ice for 1 h and extracted immediately after; vi) kept on ice for 3 h and extracted immediately after; vii) kept without ice for 1 h at RT and extracted immediately after; viii) kept without ice for 3 h and extracted immediately after.
Later, an additional plasma pool was prepared of fresh plasma from some (n=5) of the healthy subjects contributing to the first pool, spiked with glucagon (0 and 40 pmol/l, final concentration), and aliquoted. Thereafter, the valiquots were kept on ice for up to 24 h. These aliquots (N=6–8 for each time point) were extracted after 1, 3, 6, 12, and 24 h, respectively, measured (see below) and compared with a set of aliquots extracted immediately after spiking with peptide. […] After extraction, peptide concentrations were analyzed using the assays described below. […]

How the values of series [4] were obtained:
From each of the original spiked plasma portions, eight to ten aliquots were distributed into low-adsorption Nunc tubes (VWR-Bie&Berntsen A/S, Herlev, Denmark). One set of samples (N=8–10) was extracted and analyzed immediately to serve as controls. The remaining eight sets were divided into two and stored at −20 °C or −80 °C. Samples (N=8–10) from each set were analyzed after 1, 3, 6, and 12 months of storage. In addition, seven portions of the new plasma pool as well as assay buffer (to which was added 6% human serum albumin (HSA) to mimick plasma), spiked with 0 and 40 pmol/l of glucagon (N=5 for each set of spiked samples), were assayed (plasma after extraction) after freezing (at −20 °C) for 0 (i.e., they were measured immediately without freezing), 1, 3, 6, 12, 24, and 72 h of storage at −20 °C.
The recovery in percent was calculated as the measured concentration in the individual, spiked plasma sample minus the concentration in the corresponding non-spiked plasma sample divided by the theoretical spiked concentration of peptide and multiplied by 100. For the presentation of data, we normalized the recovery after each treatment by adjusting for the recovery of the samples extracted immediately, set as 100% (Table 1). Differences between treatments were analyzed by one-way ANOVA for repeated measurement with post hoc Bonferroni correction. […]
This is another data set of the same source.

Take `CC[C@H](C)[C@H](NC(=O)[C@H](Cc1ccccc1)NC(=O)[C@H](CCC(=O)O)NC(=O)[C@H](CCCCN)NC(=O)[C@H](C)NC(=O)[C@H](C)NC(=O)[C@H](CCC(N)=O)NC(=O)CNC(=O)[C@H](CCC(=O)O)NC(=O)[C@H](CC(C)C)NC(=O)[C@H](Cc1ccc(O)cc1)NC(=O)[C@H](CO)NC(=O)[C@H](CO)NC(=O)[C@@H](NC(=O)[C@H](CC(=O)O)NC(=O)[C@H](CO)NC(=O)[C@@H](NC(=O)[C@H](Cc1ccccc1)NC(=O)[C@@H](NC(=O)CNC(=O)[C@H](CCC(=O)O)NC(=O)[C@H](C)NC(=O)[C@@H](N)Cc1c[nH]cn1)[C@@H](C)O)[C@@H](C)O)C(C)C)C(=O)N[C@@H](C)C(=O)N[C@@H](Cc1c[nH]c2ccccc12)C(=O)N[C@@H](CC(C)C)C(=O)N[C@H](C(=O)N[C@@H](CCCCN)C(=O)NCC(=O)N[C@@H](CCCNC(=N)N)C(N)=O)C(C)C` [GLP-1 7–36NH2]: in series [1], the “Recovery of intact GLP-1 on addition of a DPP4 inhibitor” value is on record as “increased”.
Regarding glucagon 1–29, the “Recovery of glucagon in buffer after freezing” value in series [2] was “unaffected”. In series [3], the “Glucagon recovery at RT for 3 h, N-terminal-specific assay” value was “significant (P=0.02) reduction” and the “Glucagon stability at RT for 1 h” value is “relatively stable”. Besides, the “Loss of glucagon recovery after 1 month of frozen storage” value in series [4] is listed as “about 50%”.
